This passage reports Ranking, FACS data, Competition Binding, 1st exp. (ranking) and Competition Binding, 2nd exp. (ranking) results from patent US20180228802A1.

Experiment [1] has as its target PD-1. Nature of the experiment: FACS; rank of the clone among the humanized BAP049 clones; cells and conditions not described in this filing. On the technique in general: In flow cytometry, cells or beads pass a laser one at a time.
For experiment [2], the target named is PD-1. In words: competition binding, 1st experiment; rank among the clones; competitor not given.
Experiment [3] deals with PD-1. Nature of the experiment: competition binding, 2nd experiment; rank among the clones; competitor not given.

Numbering of substitutions follows the chain as printed.

Sequence of PD-1 (chain, as listed by the source limits assumed): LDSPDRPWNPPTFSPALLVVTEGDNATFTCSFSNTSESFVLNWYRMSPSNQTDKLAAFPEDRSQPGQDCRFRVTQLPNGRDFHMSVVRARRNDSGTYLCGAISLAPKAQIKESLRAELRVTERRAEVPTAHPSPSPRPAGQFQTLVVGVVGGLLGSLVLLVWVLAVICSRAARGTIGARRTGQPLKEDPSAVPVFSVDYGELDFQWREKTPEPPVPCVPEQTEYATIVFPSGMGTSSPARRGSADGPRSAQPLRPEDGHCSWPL

B1: Clone No. 1 (antibody, human IgG4 S228P, kappa, V domains shown)
VH: EVQLVQSGAEVKKPGESLRISCKGSGYTFTTYWMHWVRQATGQGLEWMGNIYPGTGGSNFDEKFKNRVTITADKSTSTAYMELSSLRSEDTAVYYCTRWTTGTGAYWGQGTTVTVSS
VL: EIVLTQSPATLSLSPGERATLSCKSSQSLLDSGNQKNFLTWYQQKPGQAPRLLIYWASTRESGVPSRFSGSGSGTEFTLTISSLQPDDFATYYCQNDYSYPYTFGQGTKVEIKR
As to B1, the Ranking, FACS data with PD-1 [1] stood at 2. The molecule also gave a Competition Binding, 1st exp. (ranking) with PD-1 [2] of 7. This molecule yielded a Competition Binding, 2nd exp. (ranking) with PD-1 [3] of 2.

B2: Clone No. 5 (antibody, human IgG4 S228P, kappa, V domains shown)
VH: B1 VH
VL: B1 VL with Q48K, R51K, E76D, L79F, D87E, F89I
Turning to B2, the Ranking, FACS data with PD-1 [1] came out at 5. In the experiment with PD-1 [2], this molecule yielded a Competition Binding, 1st exp. (ranking) of 5. In the experiment with PD-1 [3], the Competition Binding, 2nd exp. (ranking) is more than 4.

B3: Clone No. 12 (antibody, human IgG4 S228P, kappa, V domains shown)
VH: B1 VH
VL: DIQMTQSPSSLSASVGDRVTITCKSSQSLLDSGNQKNFLTWYLQKPGQSPQLLIYWASTRESGVPSRFSGSGSGTDFTFTISSLEAEDAATYYCQNDYSYPYTFGQGTKVEIKR
B3 gave a Ranking, FACS data with PD-1 [1] of 3. This molecule also displayed a Competition Binding, 1st exp. (ranking) with PD-1 [2] of 8. In addition, the Competition Binding, 2nd exp. (ranking) in the experiment with PD-1 [3] is 16.

B4: Clone No. 4 (antibody, human IgG4 S228P, kappa, V domains shown)
VH: EVQLVQSGAEVKKPGESLRISCKGSGYTFTTYWMHWIRQSPSRGLEWLGNIYPGTGGSNFDEKFKNRFTISRDNSKNTLYLQMNSLRAEDTAVYYCTRWTTGTGAYWGQGTTVTVSS
VL: B1 VL with Q48K, R51K, E76D, L79F, D87E, F89I
B4 had a Ranking, FACS data with PD-1 [1] of 14. In the experiment with PD-1 [2], this molecule yielded a Competition Binding, 1st exp. (ranking) of 15. Also, in the experiment with PD-1 [3], the Competition Binding, 2nd exp. (ranking) stood at 15.

B5: Clone No. 2 (antibody, human IgG4 S228P, kappa, V domains shown)
VH: B1 VH
VL: DIQMTQSPSSLSASVGDRVTITCKSSQSLLDSGNQKNFLTWYQQKPGQAPRLLIYWASTRESGIPPRFSGSGYGTDFTLTINNIESEDAAYYFCQNDYSYPYTFGQGTKVEIKR
Regarding B5, the Ranking, FACS data with PD-1 [1] is 6. This molecule registered a Competition Binding, 1st exp. (ranking) in the experiment with PD-1 [2] of 3. In the experiment with PD-1 [3], the Competition Binding, 2nd exp. (ranking) came out at 2.

B6: Clone No. 16 (antibody, human IgG4 S228P, kappa, V domains shown)
VH: B4 VH with I37V, S40A, S42G, R43Q, L48M
VL: EIVLTQSPDFQSVTPKEKVTITCKSSQSLLDSGNQKNFLTWYQQKPGQAPRLLIYWASTRESGVPSRFSGSGSGTDFTFTISSLEAEDAATYYCQNDYSYPYTFGQGTKVEIKR
In the experiment with PD-1 [1], B6 registered a Ranking, FACS data of 15. The molecule also yielded a Competition Binding, 1st exp. (ranking) with PD-1 [2] of 16. For the same molecule, in the experiment with PD-1 [3], the Competition Binding, 2nd exp. (ranking) was found to be 15.

B7: Clone No. 3 (antibody, human IgG4 S228P, kappa, V domains shown)
VH: B4 VH
VL: B5 VL
Take B7: in the experiment with PD-1 [1], the Ranking, FACS data came out at 7. For the same molecule, the Competition Binding, 1st exp. (ranking) in the experiment with PD-1 [2] came out at 8. Also, in the experiment with PD-1 [3], the Competition Binding, 2nd exp. (ranking) was found to be 14.
